These are literature values, as cited in paper PMC4699190.

For orientation: Kd means the equilibrium constant for the complex coming apart.

The data set concerns the target Carbonic anhydrase II (Homo sapiens) (UniProt P00918). Nature of the data set: solid-phase binding assay.
Regarding AE1 C-terminus (from UniProt P02730), the equilibrium dissociation constant (Kd) is 0.597 µM. NDCBE C-terminus (from UniProt Q2Y0W8): the Kd was 0.33 µM. For NBCe1 C-terminus (from UniProt Q9Y6R1), the Kd is 0.322 µM.
